Test results as given in patent US20230125500A1, “ANGIOSTATIN NEUTRALIZING PEPTIDES DERIVED FROM ATP SYNTHASE ALPHA SUBUNIT” (The Governors of the University of Alberta, priority 2021, published 2023).

Columns and labels:
angiostatin kringles 1-4 = target: T1, angiostatin kringles 1-4 (Homo sapiens, UniProt P00747); assay: Immunoprecipitation of angiostatin K1-4 after incubation with trypsinized ATP synthase subunit α, mass spectrometry of bound peptides; assay type: binding; details: for abundance based on peptide spectral matches (PSMs): angiostatin-bound peptides after immunoprecipitation; for binding to angiostatin (immunoprecipitation, mass spectrometry): peptides from trypsin digest of recombinant F1F0 ATP synthase subunit α incubated with purified angiostatin kringles 1-4
T1 construct: the resulting peptides incubated with purified angiostatin kringles 1-4
T1 sequence (P00747 79-466 limits assumed): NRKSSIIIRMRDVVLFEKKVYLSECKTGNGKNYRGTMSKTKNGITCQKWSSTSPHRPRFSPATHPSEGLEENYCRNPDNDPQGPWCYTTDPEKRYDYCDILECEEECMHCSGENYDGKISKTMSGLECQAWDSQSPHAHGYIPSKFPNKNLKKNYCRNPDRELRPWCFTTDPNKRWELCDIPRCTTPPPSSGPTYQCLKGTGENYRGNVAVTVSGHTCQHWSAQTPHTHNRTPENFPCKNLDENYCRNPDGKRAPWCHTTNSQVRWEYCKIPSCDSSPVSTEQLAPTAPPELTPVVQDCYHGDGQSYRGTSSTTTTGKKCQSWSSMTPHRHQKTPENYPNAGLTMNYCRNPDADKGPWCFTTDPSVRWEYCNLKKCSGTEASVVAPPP
Procedure: Trypsin digestion of ATP synthase subunit α. Recombinant F1F0 ATP synthase subunit α was digested with trypsin, and following heat-inactivation of trypsin the resulting peptides incubated with purified angiostatin kringles 1-4. Subsequently, the angiostatin was immunoprecipitated and submitted for mass spectroscopy analysis to identify any potential bound peptides of subunit α.

eNOS protein expression = assay: Immunoblot of eNOS in angiostatin-treated hypoxic HMVEC-C; assay type: cell-based, Human; details: 48 hours hypoxic conditions, peptides tested with angiostatin
Procedure: (§1) Cell culture and hypoxia. Cardiac-derived Human microvascular endothelial cells from (HMVEC-C) were obtained from Lonza (Walkersville, Md., USA) and cultured in a humidified atmosphere at 37° C. and 5% CO2 in EGM-2 MV. Depending on the donor, the primary endothelial cells were serum starved for 4-16 h in EBM-2 and 0.5% FBS prior to exposure to hypoxic conditions. The time of serum starvation prior to treatment was titrated to induce approximately 40% apoptosis following treatment under normoxic conditions. Hypoxia was induced by exposing endothelial cells for 48 h under serum-starved conditions in a Billups-Rothenberg chamber continuously gassed with 95% N2-5% CO2.
(§2) Immunoblots. HMVEC-L lysates were subjected to 8% sodium dodecyl sulfate-polyacrylamide gel electrophoresis Blots were blocked overnight in TTBS and 5% non-fat milk and then cut at the 50 KDa across the membrane. Subsequently the >50 KDa upper membrane was incubated with either rabbit anti-human MMP-14 (MT1-MMP) (1 μg/ml) (Millipore) (Etobicoke, ONT, Canada), or mouse anti-eNOS (1:1000) (Abcam) (Toronto, ONT, Canada) for 2 h. Anti-mouse (1:10,000), or anti-rabbit (1:5000) horseradish peroxidase-conjugated antibodies were used as the secondary antibodies (Sigma, Oakville, ON, Canada). […] Blot bands were quantified using ImageJ software (Bio-Rad, Mississauga, ON, Canada) and expressed as arbitrary units of density per β-actin.

[1] = system: MT1-MMP protein expression; assay: Immunoblot of MT1-MMP (MMP-14) in angiostatin-treated hypoxic HMVEC-C; assay type: cell-based, Human; details: 48 hours hypoxic conditions, peptides tested with angiostatin
Procedure: as §1, §2

MMP-2 protein expression = assay: Gelatin zymography of MMP-2 in HMVEC-C lysates; assay type: cell-based, Human; details: 48 hours hypoxic conditions, peptides tested with angiostatin
Procedure: as §1
Gelatin zymography. Gelatin zymography was used to assess MMP-2 levels within HMVEC-C lysates. Zymography was performed using 8% SDS-PAGE with copolymerized gelatin (2 mg/ml). After electrophoresis, gels were washed 3× for 20 min in 2% Triton X-100. Next, gels were washed 2· for 20 min in developing buffer (50 mM Tris-HCl pH 7.6, 150 mM NaCl, 5 mM CaCl2), and 0.05% NaN3) and then incubated in developing buffer at 37° C. overnight. Gels were stained with 0.05% Coomassie Brilliant Blue and then destained in a 4% ethanol and 8% acetic acid solution. Gelatinolytic activity was detected as transparent bands against a blue background of Coomassie-stained gelatin. […]

fibrinolysis = assay: In vitro fibrinolysis assay in citrated human plasma; assay type: biochemical; details: recalcified human plasma, thrombin + tPA 1 μg/ml, 2 hours 37° C.; combined peptides each 1 μM, aprotinin 10 μM
Procedure: Fibrinolysis Assays. Citrated human plasma (platelet-free) was recalcified to a final free Ca^2+ concentration of 2.5 mM. After recalcification, plasma was incubated with a peptide 1, 2, 3, or with combined a peptides 1-3 (each 1 μM), or with negative control 8 peptide (3 μM) or with aprotinin (10 μM) as positive control for inhibiting fibrinolysis. To initiate clotting ice-cold thrombin (0.3 U/ml) was added to each well, while to initiate fibrinolysis human tissue plasminogen activator (1 μg/ml; Sigma) was added. After 2 hours incubation at 37° C. the absorbance at 405 nm was measured using a Bio-Rad iMark microplate reader and the results were expressed as percent fibrinolysis.

HMVEC-C = assay: Endothelial cell migration assay under hypoxia; assay type: cell-based, Human; details: hypoxia 48 hours, VEGF 10 ng/ml chemoattractant, angiostatin 600 nM; combined peptides 1 μM each
Procedure: Migration assays. 24-well plate inserts with […] pores (Falcon Corning, Tewksbury, Mass., USA) were coated with 1 mg/ml gelatin and incubated at 37° C. for 2 hours to allow gelatin to solidify. Excess gelatin was aspirated and inserts were left to dry overnight under UV light, then gently washed once with 100μl of PBS. Once approximately 80% confluent, HMVEC-C were serum starved for 8 hours in 0.5% FBS in EBM-2. Cells were trypsinized and seeded into the top chamber of the gelatin-coated inserts at a concentration of 25 000 cells/insert. Recombinant VEGF (10 ng/ml) in 0.5% FBS in EBM-2 was added to the corresponding bottom chambers to serve as a chemoattractant. HMVEC-C were treated with PBS control, angiostatin (600 nM), angiostatin (600 nM)+a peptide 1 through 3 (3 μM), angiostatin (600 nM)+negative-control 6 peptide (3 μM), and angiostatin (600 nM)+combined a peptide 1-3 (1 μM each). The system was incubated in hypoxia (95% N2, 5% CO2) for 48 hours. After incubation, the top layer of each insert was scraped gently using a Q-tip to remove the non-migrated cells. Migrated cells at the bottom of the insert were fixed in 4% formaldehyde in PBS for five minutes, followed by staining using Diffquik stain (Siemens Healthcare Diagnostics Inc., Newark, Del., USA). […] Cells were counted using ImageJ software, and expressed as migration percent of PBS control.

Molecule | abundance based on peptide spectral matches (PSMs) (angiostatin kringles 1-4) | binding to angiostatin (immunoprecipitation, mass spectrometry) (angiostatin kringles 1-4) | eNOS levels (immunoblot) (eNOS protein expression) | MT1-MMP levels (immunoblot) [1] | MMP-2 levels (gelatin zymography) (MMP-2 protein expression) | further results
AVDSLVPIGR [Alpha peptide 3] | medium abundance | bound to angiostatin |  |  |  | 
TGTAEMSSILEER [Alpha peptide 1] | high abundance | bound to angiostatin |  |  |  | 
TSIAIDTIINQK [Alpha peptide 2] | medium abundance | bound to angiostatin |  |  |  | 
VPTLQVLRPGLVV [delta peptide, reference compound] |  |  | failed to significantly increase | failed to significantly increase | failed to significantly increase | 
aprotinin |  |  |  |  |  | inhibition of fibrinolysis (fibrinolysis): fibrinolysis inhibitor
angiostatin (protein) YLSECKTGNGKNYRGTMSKTKNGITCQKWSSTSPHRPRFSPATHPSEGLEENYCRNPDNDPQGPWCYTTDPEKRYDYCDILECEEECMHCSGENYDGKISKTMSGLECQAWDSQSPHAHGYIPSKFPNKNLKKNYCRNPDRELRPWCFTTDPNKRWELCDIPRCTTPPPSSGPTYQCLKGTGENYRGNVAVTVSGHTCQHWSAQTPHTHNRTPENFPCKNLDENYCRNPDGKRAPWCHTTNSQVRWEYCKIPSCDSSPVSTEQLAPTAPPELTPVVQDCYHGDGQSYRGTSSTTTTGKKCQSWSSMTPHRHQKTPENYPNAGLTMNYCRNPDADKGPWCFTTDPSVRWEYCNLKKCSGTEA |  |  | significant reduction | significant reduction | significant reduction | HMVEC-C migration (HMVEC-C): decreased
